Measured values published in US7064106B2, “Gene and use thereof” (Takeda Chemical Industries, Ltd., priority 1999, dated 2006).

How the values were obtained:
Assay type in all cases: cell-based
[1] = target: T1, IRAP (55–82) (Rattus norvegicus, UniProt P97629); test: Yeast two-hybrid quantification assay of β-galactosidase activity (CPRG); settings: bait IRAP (55–82); prey MD36 cDNA base numbers 2995–3674; S. cerevisiae Y190; CPRG substrate
T1 construct: expressed in transfected cells; host or cells: Saccharomyces cerevisiae Y190
T1 sequence (P97629 55-82 limits assumed): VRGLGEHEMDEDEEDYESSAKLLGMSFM
Procedure: In order to verify the binding of human MD36 to IRAP quantitatively, the β-galactosidase activity was assayed using CPRG (chlorophenol red-β-D-galactopyranoside) as substrate.
Yeast bearing both bait and prey sought to detect the interactions therebetween was subjected to liquid culture. After the cells were recovered, the cell walls were disrupted by freezing/thawing with liquid nitrogen. After CRPG was added to a suspension of the disrupted cells, absorbance of these samples at 578 nm was measured in terms of the β-galactosidase activity. In the unit of β-galactosidase, the enzyme activity that one yeast cell is capable of hydrolyzing 1 μmol of CPRG into chlorophenol red and D-galactoside was made 1 unit. IRAP (55–82) was used as the bait sequence and as the prey sequence, the sequence (679 bp corresponding to the base numbers 2995–3674 in SEQ ID NO:3) directly isolated from human MD36 cDNA sequence by the yeast two-hybrid method was used. In addition, vector pGBT9 that expresses bait sequence-unfused GAL4-BD was used as a negative control. Using plasmids having these sequences, S. Cerevisiae Y190 was transformed and the β-galactosidase activity of the reconstructed yeast transformants was assayed. […] On the other hand, the binding activity was scarcely noted with the protein bearing GAL4-BD alone but no bait sequence (FIG. 19). […]

[2] = target: T2, C-terminal cytoplasmic domain (amino acid numbers 451–492) of mouse GLUT1 (Mus musculus, UniProt P17809); test: Yeast two-hybrid β-galactosidase assay, interaction with glucose transporter; settings: bait mouse GLUT1 (451–492); prey human MD36 cDNA 2995–3674 fused to GAL4-AD
T2 construct: the C-terminal cytoplasmic domain (amino acid numbers 451–492) of mouse GLUT1; expressed in transfected cells; host or cells: Saccharomyces cerevisiae Y190
T2 sequence (P17809 451-492): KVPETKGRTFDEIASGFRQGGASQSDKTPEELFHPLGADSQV
Procedure: (§1) As the bait sequence, the C-terminal cytoplasmic domain (amino acid numbers 468–510; SEQ ID NO:13 and SEQ ID NO:14) of mouse GLUT4 was used. For control, similar procedures were performed using the C-terminal cytoplasmic domain (amino acid numbers 451–492) of mouse GLUT1, which is the other protein of glucose transporters. These sequences were isolated from the respective cDNAs by PCR using pfu polymerase (manufactured by Stratagene, Inc.) and constructed to be expressed as the fusion proteins in the GAL4-BD sequence of pGBT9 (manufactured by Clontech, Inc.). On the other hand, human MD36 cDNA (base numbers 2995–3674 in SEQ ID NO:3) fused to GAL4-AD was used as the prey sequence. S. Cerevisiae Y190 was transformed by these plasmids, and the binding activity of MD36 to each of the glucose transporters was assayed in terms of the β-galactosidase activity.

[3] = target: T3, C-terminal cytoplasmic domain (amino acid numbers 468–510) of mouse GLUT4 (Mus musculus, UniProt P14142); test: as above; settings: bait mouse GLUT4 (468–510); prey human MD36 cDNA 2995–3674 fused to GAL4-AD
T3 construct: amino acid numbers 468–510; expressed in transfected cells; host or cells: Saccharomyces cerevisiae Y190
T3 sequence (P14142 467-509): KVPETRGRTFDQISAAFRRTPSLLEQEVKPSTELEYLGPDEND
Procedure: as §1

[4] = target: T4, profilin IIL (Homo sapiens, UniProt P35080); test: Yeast two-hybrid HIS3 growth test, MD36 and profilin family; settings: S. cerevisiae Y190; 40 mM 3-amino-1,2,4-triazole
T4 construct: expressed in transfected cells; host or cells: Saccharomyces cerevisiae Y190
T4 sequence (P35080 1-140): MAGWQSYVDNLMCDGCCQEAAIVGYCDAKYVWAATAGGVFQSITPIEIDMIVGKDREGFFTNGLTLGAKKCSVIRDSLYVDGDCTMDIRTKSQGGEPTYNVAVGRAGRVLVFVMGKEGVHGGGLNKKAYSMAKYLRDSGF
Procedure: Using as a template human skeletal muscle-derived cDNA and as an enzyme Pfu polymerase (STRATAGENE), the reaction was carried out at 95° C. for 30 seconds, at 65° C. for 45 seconds and at 72° C. for 60 seconds, for 35 cycles. As a result of PCR, the DNA fragment of 745 bp was found, in addition to the DNA fragment of 423 bp or profilin II, and named profilin IIL. The base sequence for cDNA of profilin IIL is shown by SEQ ID NO:29, and the amino acid sequence of profilin II is shown by SEQ ID NO:28.
The protein-protein interaction between MD36 and the profilin family was detected by the yeast two-hybrid system. Based on pGBT9 (CLONTECH), expression plasmids were constructed to express the coding regions of profiling I (Evangelista et al., Science, 276, 118–122, 1997; Imamura et al., EMBO J., 16, 2745–2755, 1997; Tanaka, Biochem. Biophys. Res. Commun., 267, 479–481, 2000), profilin II (Schluter et al., Biohim. Biophys. Acta, 1359, 97–109, 1997), and profiling IIL in the form fused to yeast GAL4-DNA-binding domain protein under control of yeast ADH1 promoter. These plasmids were named pG-PFNI, pG-PFNII and pG-PFNIII, respectively (yeast selection marker was TRP1). […]

B1: MD36: human skeletal muscle-derived IRAP binding protein, SEQ ID NO:1; C-terminal part (bases 2995–3674) used in binding tests (protein, listed as Homo sapiens)
chain: MAGGEDRGDGEPVSVVTVRVQYLEDTDPFACANFPEPRRAPTCSLDGALPLGAQIPAVHRLLGAPLKLEDCALQVSPSGYYLDTELSLEEQREMLEGFYEEISKGRKPTLILRTQLSVRVNAILEKLYSSSGPELRRSLFSLKQIFQEDKDLVPEFVHSEGLSCLIRVGAAADHNYQSYILRALGQLMLFVDGMLGVVAHSDTIQWLYTLCASLSRLVVKTALKLLLVFVEYSENNAPLFIRAVNSVASTTGAPPWANLVSILEEKNGADPELLVYTVTLINKTLAALPDQDSFYDVTDALEQQGMEALVQRHLGTAGTDVDLRTQLVLYENALKLEDGDIEEAPGAGGRRERRKPSSEEGKRSRRSLEGGGCPARAPEPGPTGPASPVGPTSSTGPALLTGPASSPVGPPSGLQASVNLFPTISVAPSADTSSERSIYKLHQTASVWAPESPPVPQSPPGQARLEARFLENVAAAETEKQVALAQGRAETLAGAMPNEAGGHPDARQLWDSPETAPAARTPQSPAPCVLLRAQRSLAPEPKEPLIPASPKAEPIWELPTRAPRLSIGDLDFSDLGEDEDQDMLNVESVEAGKDIPAPSPPLPLLSGVPPPPPLPPPPPIKGPFPPPPPLPLAAPLPHSVPDSSALPTKRKTVKLFWRELKLAGGHGVSASRFGPCATLWASLDPVSVDTARLEHLFESRAKEVLPSKKAGEGRRTMTTVLDPKRSNAINIGLTTLPPVHVIKAALLNFDEFAVSKDGIEKLLTMMPTEEERQKIEEAQLANPDIPLGPAENFLMTLASIGGLAARLQLWAFKLDYDSMEREIAEPLFDLKVGMEQLVQNATFRCILATLLAVGNFLNGSQSSGFELSYLEKVSEVKDTVRRQSLLHHLCSLVLQTRPESSDLYSEIPALTRCAKVDFEQLTENLGQLERRSRAAEESLRSLAKHELAPALRARLTHFLDQCARRVAMLRIVHRRVCNRFHAFLLYLGYTPQAAREVRIMQFCHTLREFALEYRTCRERVLQQQQKQATYRERNKTRGRMITETEKFSGVAGEAPSNPSVPVAVSSGPGRGDADSHASMKSLLTSRPEDTTHNRRSRGMVQSSSPIMPTVGPSTASPEEPPGSSLPSDTSDEIMDLLVQSVTKSSPRALAARERKRSRGNRKSLRRTLKSGLGDDLVQALGLSKGPGLEV
With B1 the β-galactosidase activity [1] was “about 70 units”, the “binding activity of MD36 to glucose transporter in terms of β-galactosidase activity” value [2] was “scarcely bound” and the “binding activity of MD36 to glucose transporter in terms of β-galactosidase activity” value [3] was “bound”. For the same molecule, the “growth of yeast on tryptophan, leucine and histidine-free SD medium” value [4] was “Growth of the yeast was noted”.
